Source: US20150111251A1 (AbbVie / Abbott, published 2015)

What was measured:
[1] = target: T1, Recombinant Human TNF-α/TNFSF1A (human, UniProt P01375 77-233); test: SPR (BIACORE), antibody captured, TNFα in solution
T1 construct: also called hTNF-α; huTNFα
Experimental: The BIACORE assay (Biacore, Inc, Piscataway, N.J.) determines the affinity of antibodies with kinetic measurements of on-rate and off-rate constants. Binding of antibodies to a target antigen (for example, a purified recombinant target antigen) is determined by surface plasmon resonance-based measurements with a Biacore® 1000 or 3000 instrument (Biacore® AB, Uppsala, Sweden) using running HBS-EP (10 mM HEPES [pH 7.4], 150 mM NaCl, 3 mM EDTA, and 0.005% surfactant P20) at 25° C. All chemicals are obtained from Biacore® AB (Uppsala, Sweden) or otherwise from a different source as described. For example, approximately 5000 RU of goat anti-mouse IgG, (Fcγ), fragment specific polyclonal antibody (Pierce Biotechnology Inc, Rockford, Ill.) diluted in 10 mM sodium acetate (pH 4.5) is directly immobilized across a CM5 research grade biosensor chip using a standard amine coupling kit according to manufacturer's instructions and procedures at 25 μg/ml. Unreacted moieties on the biosensor surface are blocked with ethanolamine. Modified carboxymethyl dextran surface in flowcell 2 and 4 is used as a reaction surface. Unmodified carboxymethyl dextran without goat anti-mouse IgG in flow cell 1 and 3 is used as the reference surface. For kinetic analysis, rate equations derived from the 1:1 Langmuir binding model are fitted simultaneously to association and dissociation phases of all eight injections (using global fit analysis) with the use of Biaevaluation 4.0.1 software. Purified antibodies are diluted in HEPES-buffered saline for capture across goat anti-mouse IgG specific reaction surfaces. Antibodies to be captured as a ligand (25 μg/ml) are injected over reaction matrices at a flow rate of 5 μl/minute. The association and dissociation rate constants, kₒₙ (M⁻¹ s⁻¹) and koff (s⁻¹), are determined under a continuous flow rate of 25 μl/minute. Rate constants are derived by making kinetic binding measurements at different antigen concentrations ranging from 10-200 nM. The equilibrium dissociation constant (M) of the reaction between antibodies and the target antigen is then calculated from the kinetic rate constants by the following formula: KD=koff/kₒₙ. Binding is recorded as a function of time and kinetic rate constants are calculated. In this assay, on-rates as fast as 10⁶ M⁻¹ s⁻¹ and off-rates as slow as 10⁻⁶ s⁻¹ can be measured.

[2] = target: T1, Recombinant Human TNF-α/TNFSF1A; test: cell-based or functional assay

T1 sequence (P01375 77-233 limits assumed): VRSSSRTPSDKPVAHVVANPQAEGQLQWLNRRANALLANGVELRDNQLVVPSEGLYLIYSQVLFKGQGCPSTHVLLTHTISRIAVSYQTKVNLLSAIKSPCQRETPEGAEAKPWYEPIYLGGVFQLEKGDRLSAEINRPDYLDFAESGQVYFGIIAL

| koff [1] [s⁻¹] | kon [1] [M⁻¹ s⁻¹] | TNFα Neutralization Assay IC50 nM (L929 cells) [2] [nM] | Kd [1] [nM] | Binder |
| --- | --- | --- | --- | --- |
| 0.00093 | 1.3e+06 | 3.78 | 0.73 | AB359 (antibody, V domains shown, Full-length humanized antibody made in HEK 293-6E; also called hMAK199VH.1a/hMAK199VL.1b) VH: EIQLVQSGSELKKPGASVKVSCKASGYTFTNYGMNWVRQAPGQGLEWMGWINTYTGEPTYADDFKGRFVFSLDTSVSTAYLQISSLKAEDTAVYFCARKFLTTVVVTDYAMDYWGQGTTVTVSS VL: DIQMTQSPSSLSASVGDRVTITCRASQDISNYLNWYQQKPGKAPKLLIYYTSRLQSGVPSRFSGSGSGTDYTLTISSLQPEDFATYYCQQGNTLPPTFGQGTKLEIK |
| 0.0014 | 2.4e+06 | 1.9 | 0.59 | AB355 (antibody, V domains shown, Full-length humanized antibody made in HEK 293-6E; also called hMAK199VH.1/hMAK199VL.2a) VH: EVQLVQSGSELKKPGASVKVSCKASGYTFTNYGMNWVRQAPGQGLEWMGWINTYTGEPTYADDFKGRFVFSLDTSVSTAYLQISSLKAEDTAVYYCARKFLTTVVVTDYAMDYWGQGTTVTVSS VL: DIVMTQSPAFLSVTPGEKVTITCRASQDISNYLNWYQQKPDQTVKLLIYYTSRLQSGVPSRFSGSGSGTDYTFTISSLEAEDAATYFCQQGNTLPPTFGQGTKLEIK |
| 0.00094 | 2.1e+06 | 0.35 | 0.45 | AB352 (antibody, V domains shown, Full-length humanized antibody made in HEK 293-6E; also called hMAK199VH.1/hMAK199VL.1a) VH: EVQLVQSGSELKKPGASVKVSCKASGYTFTNYGMNWVRQAPGQGLEWMGWINTYTGEPTYADDFKGRFVFSLDTSVSTAYLQISSLKAEDTAVYYCARKFLTTVVVTDYAMDYWGQGTTVTVSS VL: DIQMTQSPSSLSASVGDRVTITCRASQDISNYLNWYQQKPGKTVKLLIYYTSRLQSGVPSRFSGSGSGTDYTLTISSLQPEDFATYFCQQGNTLPPTFGQGTKLEIK |
| 0.0013 | 1.9e+06 | 1.94 | 0.67 | AB357 (antibody, V domains shown, Full-length humanized antibody made in HEK 293-6E; also called hMAK199VH.1a/hMAK199VL.1) VH: EIQLVQSGSELKKPGASVKVSCKASGYTFTNYGMNWVRQAPGQGLEWMGWINTYTGEPTYADDFKGRFVFSLDTSVSTAYLQISSLKAEDTAVYFCARKFLTTVVVTDYAMDYWGQGTTVTVSS VL: DIQMTQSPSSLSASVGDRVTITCRASQDISNYLNWYQQKPGKAPKLLIYYTSRLQSGVPSRFSGSGSGTDFTLTISSLQPEDFATYYCQQGNTLPPTFGQGTKLEIK |
| 0.0015 | 1.1e+06 | > 20 | 1.4 | AB377 (antibody, V domains shown, Full-length humanized antibody made in HEK 293-6E; also called hMAK199VH.2a/hMAK199VL.1b) VH: EIQLVQSGAEVKKPGASVKVSCKASGYTFTNYGMNWVRQAPGQGLEWMGWINTYTGEPTYADDFKGRFTFTLDTSTSTAYMELSSLRSEDTAVYFCARKFLTTVVVTDYAMDYWGQGTTVTVSS VL: DIQMTQSPSSLSASVGDRVTITCRASQDISNYLNWYQQKPGKAPKLLIYYTSRLQSGVPSRFSGSGSGTDYTLTISSLQPEDFATYYCQQGNTLPPTFGQGTKLEIK |
| 0.0011 | 1.3e+06 | 2.11 | 0.83 | AB362 (antibody, V domains shown, Full-length humanized antibody made in HEK 293-6E; also called hMAK199VH.1a/hMAK199VL.2b) VH: EIQLVQSGSELKKPGASVKVSCKASGYTFTNYGMNWVRQAPGQGLEWMGWINTYTGEPTYADDFKGRFVFSLDTSVSTAYLQISSLKAEDTAVYFCARKFLTTVVVTDYAMDYWGQGTTVTVSS VL: DIVMTQSPAFLSVTPGEKVTITCRASQDISNYLNWYQQKPDQAPKLLIYYTSRLQSGVPSRFSGSGSGTDYTFTISSLEAEDAATYYCQQGNTLPPTFGQGTKLEIK |

The next lines start with the binder.

| Binder | koff [1] [s⁻¹] | kon [1] [M⁻¹ s⁻¹] | TNFα Neutralization Assay IC50 nM (L929 cells) [2] [nM] | Kd [1] [nM] |
| --- | --- | --- | --- | --- |
| AB351 (antibody, V domains shown, Full-length humanized antibody made in HEK 293-6E; also called hMAK199VH.1/hMAK199VL.1) VH: EVQLVQSGSELKKPGASVKVSCKASGYTFTNYGMNWVRQAPGQGLEWMGWINTYTGEPTYADDFKGRFVFSLDTSVSTAYLQISSLKAEDTAVYYCARKFLTTVVVTDYAMDYWGQGTTVTVSS VL: DIQMTQSPSSLSASVGDRVTITCRASQDISNYLNWYQQKPGKAPKLLIYYTSRLQSGVPSRFSGSGSGTDFTLTISSLQPEDFATYYCQQGNTLPPTFGQGTKLEIK | 0.00068 | 2e+06 | 1.06 | – |
| AB356 (antibody, V domains shown, Full-length humanized antibody made in HEK 293-6E; also called hMAK199VH.1/hMAK199VL.2b) VH: EVQLVQSGSELKKPGASVKVSCKASGYTFTNYGMNWVRQAPGQGLEWMGWINTYTGEPTYADDFKGRFVFSLDTSVSTAYLQISSLKAEDTAVYYCARKFLTTVVVTDYAMDYWGQGTTVTVSS VL: DIVMTQSPAFLSVTPGEKVTITCRASQDISNYLNWYQQKPDQAPKLLIYYTSRLQSGVPSRFSGSGSGTDYTFTISSLEAEDAATYYCQQGNTLPPTFGQGTKLEIK | 0.00089 | 1.3e+06 | 0.87 | 0.67 |
| AB363 (antibody, V domains shown, Full-length humanized antibody made in HEK 293-6E; also called hMAK199VH.1b/hMAK199VL.1) VH: EVQLVQSGSELKKPGASVKVSCKASGYTFTNYGMNWVRQAPGQGLEWMGWINTYTGEPTYADDFKGRFVFSLDTSVSTAYLQISSLKAEDTAVYFCARKFLTTVVVTDYAMDYWGQGTTVTVSS VL: DIQMTQSPSSLSASVGDRVTITCRASQDISNYLNWYQQKPGKAPKLLIYYTSRLQSGVPSRFSGSGSGTDFTLTISSLQPEDFATYYCQQGNTLPPTFGQGTKLEIK | 0.0012 | 1.4e+06 | 0.32 | 0.86 |
| AB365 (antibody, V domains shown, Full-length humanized antibody made in HEK 293-6E; also called hMAK199VH.1b/hMAK199VL.1b) VH: EVQLVQSGSELKKPGASVKVSCKASGYTFTNYGMNWVRQAPGQGLEWMGWINTYTGEPTYADDFKGRFVFSLDTSVSTAYLQISSLKAEDTAVYFCARKFLTTVVVTDYAMDYWGQGTTVTVSS VL: DIQMTQSPSSLSASVGDRVTITCRASQDISNYLNWYQQKPGKAPKLLIYYTSRLQSGVPSRFSGSGSGTDYTLTISSLQPEDFATYYCQQGNTLPPTFGQGTKLEIK | 0.001 | 1.1e+06 | 1.52 | 0.91 |
| AB358 (antibody, V domains shown, Full-length humanized antibody made in HEK 293-6E; also called hMAK199VH.1a/hMAK199VL.1a) VH: EIQLVQSGSELKKPGASVKVSCKASGYTFTNYGMNWVRQAPGQGLEWMGWINTYTGEPTYADDFKGRFVFSLDTSVSTAYLQISSLKAEDTAVYFCARKFLTTVVVTDYAMDYWGQGTTVTVSS VL: DIQMTQSPSSLSASVGDRVTITCRASQDISNYLNWYQQKPGKTVKLLIYYTSRLQSGVPSRFSGSGSGTDYTLTISSLQPEDFATYFCQQGNTLPPTFGQGTKLEIK | 0.00097 | 1.4e+06 | 0.21 | 0.7 |
| AB361 (antibody, V domains shown, Full-length humanized antibody made in HEK 293-6E; also called hMAK199VH.1a/hMAK199VL.2a) VH: EIQLVQSGSELKKPGASVKVSCKASGYTFTNYGMNWVRQAPGQGLEWMGWINTYTGEPTYADDFKGRFVFSLDTSVSTAYLQISSLKAEDTAVYFCARKFLTTVVVTDYAMDYWGQGTTVTVSS VL: DIVMTQSPAFLSVTPGEKVTITCRASQDISNYLNWYQQKPDQTVKLLIYYTSRLQSGVPSRFSGSGSGTDYTFTISSLEAEDAATYFCQQGNTLPPTFGQGTKLEIK | 0.00098 | 1.2e+06 | 0.82 | 0.79 |
| AB364 (antibody, V domains shown, Full-length humanized antibody made in HEK 293-6E; also called hMAK199VH.1b/hMAK199VL.1a) VH: EVQLVQSGSELKKPGASVKVSCKASGYTFTNYGMNWVRQAPGQGLEWMGWINTYTGEPTYADDFKGRFVFSLDTSVSTAYLQISSLKAEDTAVYFCARKFLTTVVVTDYAMDYWGQGTTVTVSS VL: DIQMTQSPSSLSASVGDRVTITCRASQDISNYLNWYQQKPGKTVKLLIYYTSRLQSGVPSRFSGSGSGTDYTLTISSLQPEDFATYFCQQGNTLPPTFGQGTKLEIK | 0.0011 | 1.2e+06 | 0.35 | 0.89 |
